Assay results published in US20200079851A1 (University of Texas, published 2020).
Values belong to the binder of their own block, whether it stands above or below them.

Tests used:
D2 = biological target: T1, D2; assay: matrix of binding to LILRB4 domain-Fc fusions (FIG. 47); ELISA per paragraph 433
T1 construct: also called LILRB4 D2-hIgG1-Fc; second Ig-like domain of LILRB4 as Fc fusion

[1] = biological target: T2, LILRB4 D1 (first Ig-like domain) Fc fusion protein (human, UniProt Q8NHJ6 27-118); assay: as above
T2 construct: also called D1 of LILRB4; not shown: Fc part

SR = biological target: T3, SR; assay: as above
T3 construct: also called LILRB4 SR-hIgG1-Fc; stalk region of LILRB4 as Fc fusion

human LILRB4 [2] = biological target: T4, human LILRB4 (human, UniProt Q8NHJ6 22-259, limits assumed); assay: ELISA, OD450 against antibody concentration
T4 construct: also called leukocyte immunoglobulin-like receptor subfamily B member 4

D2-SR-Fc = biological target: T5, D2-SR-Fc; assay: ELISA, mAb titrated on D2-SR-wt(119-259)
T5 construct: also called D2-SR-WT

D2-SR-M1(139-259) = assay: ELISA, mAb titrated on D2-SR-M1(139-259)
human LILRB4 [3] = biological target: T4, human LILRB4; assay: ELISA
LILRB2 = biological target: T6, LILRB2 (human, UniProt Q8N423 22-458, limits assumed); assay: cross-reactivity test on the LILRBs (ELISA per paragraph 433)
T6 construct: also called leukocyte immunoglobulin-like receptor subfamily B member 2

LILRB5 [4] = biological target: T7, LILRB5 (human, UniProt O75023 24-458, limits assumed); assay: as above
LILRB3 = biological target: T8, LILRB3 (human, UniProt O75022 24-443, limits assumed); assay: as above
T8 construct: also called leukocyte immunoglobulin-like receptor subfamily B member 3

LILRB1 [5] = biological target: T9, LILRB1 (human, UniProt Q8NHL6 24-458, limits assumed); assay: as above
T9 construct: also called leukocyte immunoglobulin-like receptor subfamily B member 1

D2-SR-M2(139-235) [6] = biological target: T10, D2-SR-M2(139-235); assay: ELISA, mAb 8 titrated
T10 chain: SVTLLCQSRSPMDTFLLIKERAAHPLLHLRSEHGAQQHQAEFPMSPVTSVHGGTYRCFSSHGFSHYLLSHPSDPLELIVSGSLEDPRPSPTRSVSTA

D2-SR-M15(139-219) [7] = assay: ELISA, mAb 8 titrated
human LILRB4 [8] = biological target: T4, human LILRB4; assay: ELISA, OD450 against antibody concentration; remark: listed apart in the source
LILRB5 [9] = biological target: T7, LILRB5; assay: cross-reactivity ELISA (FIG. 46)
LILRB1 [10] = biological target: T9, LILRB1; assay: cross-reactivity ELISA (FIG. 46)
D2-SR-M2(139-235) [11] = biological target: T10, D2-SR-M2(139-235); assay: ELISA, mAb 216-2 titrated
D2-SR-M15(139-219) [12] = assay: ELISA, mAb 216-2 titrated

T3 sequence (fusion chain, as listed by the source): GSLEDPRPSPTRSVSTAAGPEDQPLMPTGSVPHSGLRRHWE
T9 sequence (Q8NHL6 24-458 limits assumed): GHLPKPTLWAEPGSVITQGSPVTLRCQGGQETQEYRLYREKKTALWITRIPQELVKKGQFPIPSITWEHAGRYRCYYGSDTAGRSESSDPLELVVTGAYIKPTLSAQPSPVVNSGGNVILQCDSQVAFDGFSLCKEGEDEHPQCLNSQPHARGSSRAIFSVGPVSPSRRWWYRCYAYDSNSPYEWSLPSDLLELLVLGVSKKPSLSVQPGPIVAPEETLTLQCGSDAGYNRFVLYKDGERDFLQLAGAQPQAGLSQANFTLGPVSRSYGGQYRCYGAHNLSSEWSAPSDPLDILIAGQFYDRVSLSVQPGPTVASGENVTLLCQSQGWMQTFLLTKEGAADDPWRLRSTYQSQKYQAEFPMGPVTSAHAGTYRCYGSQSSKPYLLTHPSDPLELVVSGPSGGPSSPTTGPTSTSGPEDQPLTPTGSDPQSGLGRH
T1 sequence (fusion chain, as listed by the source): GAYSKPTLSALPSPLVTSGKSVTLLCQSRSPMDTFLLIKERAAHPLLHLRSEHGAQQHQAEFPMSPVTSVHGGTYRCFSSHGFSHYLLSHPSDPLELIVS
T7 sequence (O75023 24-458 limits assumed): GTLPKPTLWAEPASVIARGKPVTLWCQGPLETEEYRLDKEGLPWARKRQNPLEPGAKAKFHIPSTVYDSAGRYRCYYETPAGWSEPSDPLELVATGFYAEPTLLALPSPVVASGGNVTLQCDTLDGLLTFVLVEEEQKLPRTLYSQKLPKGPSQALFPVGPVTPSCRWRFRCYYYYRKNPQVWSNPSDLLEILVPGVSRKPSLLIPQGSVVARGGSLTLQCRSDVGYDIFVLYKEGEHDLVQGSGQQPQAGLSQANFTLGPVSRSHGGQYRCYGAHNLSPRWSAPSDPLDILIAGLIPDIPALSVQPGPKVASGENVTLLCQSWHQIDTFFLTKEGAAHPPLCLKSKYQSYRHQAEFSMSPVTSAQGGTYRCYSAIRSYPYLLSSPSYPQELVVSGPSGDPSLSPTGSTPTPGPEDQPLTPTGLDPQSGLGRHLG
T2 sequence (Q8NHJ6 27-118): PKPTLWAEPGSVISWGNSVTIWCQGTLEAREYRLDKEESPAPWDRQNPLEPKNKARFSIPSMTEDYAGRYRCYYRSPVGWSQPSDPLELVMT
T6 sequence (Q8N423 22-458 limits assumed): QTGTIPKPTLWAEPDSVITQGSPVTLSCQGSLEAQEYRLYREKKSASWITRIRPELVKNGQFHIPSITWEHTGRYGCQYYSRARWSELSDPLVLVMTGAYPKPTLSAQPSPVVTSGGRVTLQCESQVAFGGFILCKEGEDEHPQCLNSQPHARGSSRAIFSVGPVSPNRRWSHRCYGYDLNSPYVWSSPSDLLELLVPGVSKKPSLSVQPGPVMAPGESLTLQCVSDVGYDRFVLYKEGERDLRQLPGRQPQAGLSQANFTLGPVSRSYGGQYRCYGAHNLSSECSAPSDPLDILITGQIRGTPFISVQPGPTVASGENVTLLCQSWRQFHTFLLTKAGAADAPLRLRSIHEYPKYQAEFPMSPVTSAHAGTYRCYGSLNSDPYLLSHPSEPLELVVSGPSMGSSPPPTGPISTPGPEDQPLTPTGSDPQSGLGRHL
T5 sequence (Q8NHJ6 119-259): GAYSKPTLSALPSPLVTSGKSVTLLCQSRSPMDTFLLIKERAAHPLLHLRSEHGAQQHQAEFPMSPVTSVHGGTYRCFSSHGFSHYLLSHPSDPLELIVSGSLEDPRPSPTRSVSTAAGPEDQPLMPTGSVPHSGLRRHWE
T8 sequence (O75022 24-443 limits assumed): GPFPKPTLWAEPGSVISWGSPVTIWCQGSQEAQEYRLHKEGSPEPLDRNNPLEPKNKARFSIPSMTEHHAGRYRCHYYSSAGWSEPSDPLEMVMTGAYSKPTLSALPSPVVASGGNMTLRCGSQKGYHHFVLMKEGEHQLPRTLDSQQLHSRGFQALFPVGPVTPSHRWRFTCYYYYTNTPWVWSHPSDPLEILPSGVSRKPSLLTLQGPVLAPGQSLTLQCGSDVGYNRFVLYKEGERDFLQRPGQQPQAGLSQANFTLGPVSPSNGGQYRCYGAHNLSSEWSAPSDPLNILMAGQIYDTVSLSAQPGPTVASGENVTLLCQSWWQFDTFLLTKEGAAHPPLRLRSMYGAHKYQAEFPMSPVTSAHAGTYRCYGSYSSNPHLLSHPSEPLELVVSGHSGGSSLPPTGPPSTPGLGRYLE

binding result (D2): no binding
binding result [1]: no binding
binding result (SR): binds
EC50 (human LILRB4 [2]): 0.00943 µg/mL
EC50 (read off the curve) (D2-SR-Fc): ~0.03 µg/mL
EC50 (read off the curve) (D2-SR-M1(139-259)): ~0.03 µg/mL
EC50 (human LILRB4 [3]): 0.0629 nM
binding result (LILRB2): no binding
binding result (LILRB5 [4]): no binding
binding result (LILRB3): no binding
binding result (LILRB1 [5]): no binding
binding result (D2-SR-M2(139-235) [6]): no binding (tested: 1000 ng/ml)
binding result (D2-SR-M15(139-219) [7]): no binding (tested: 1000 ng/ml)
B1: anti-LILRB4 rabbit monoclonal antibody #8 (antibody, V domains shown)
VH: QSVKESGGGLVTPGGTLTLTCTASGFSLISYDMYWVRQAPGKGLEYIGIIYSDGYTFYATGAKGRITISRTSTTVDLKITSPTTEDTATYFCATNAFALWGQGTLVTISS
VL: ELDLTQTPSSVSAAVGGTVTISCQSSQNVYNNNWLVWLQQKPGQPPKRLIYTASSLASGVPSRFAGSGSATQFTLTISDLECGDAATYYCAGGYSGPIYTFGGGTEVEIK
notes: also called mAb 8

binding result (D2): no binding
binding result [1]: no binding
binding result (SR): binds
EC50 (human LILRB4 [8]): 0.0097 µg/mL
EC50 (human LILRB4 [3]): 0.0647 nM
binding result (LILRB5 [9]): binds
binding result (LILRB1 [10]): binds
binding result (D2-SR-M2(139-235) [11]): no binding (tested: 1000 ng/ml)
binding result (D2-SR-M15(139-219) [12]): no binding (tested: 1000 ng/ml)
B2: anti-LILRB4 rabbit monoclonal antibody #216-2 (antibody, V domains shown)
VH: EQSLKESGGRLVTPGTPLTLTCTVSGIDLSSYAMTWVRQVPGKGLEYIGFINIVGIAGYATWAKGRFTISKTSTTVDLKVTSPTTEDTATYFCARNWIRLDLWGQGTLVTVSS
VL: ELVMTQTPASVSAAVGGTVTISCQSSESLYKKNYLSWFQQKPGQPPKLLIYEASKLASGVPSRFSGSGSGTQFTLTISDVQCDDAASYYCLGDYTNGRDTTFGGGTEVEIK
